Assay results as given in patent US20030054488A1 (published 2003).
Numbering of substitutions follows the chain as printed.

Key:
[1] = target: T1, HeLa1 beta-galactosidase-derived fusion protein containing the N-terminal 150 residues of GPBP (human, UniProt Q5R6M6 1-150 (Pongo abelii entry)); assay: lambda-gt11 expression library filters overlaid with GPpep1, detected with monoclonal antibody
T1 construct: Expressed from the lambda-gt11 clone on library filters and as a lysogen in E. coli Y1089; also called HeLa1 lambda-gt11 fusion protein; not shown: beta-galactosidase part encoded by the lambda-gt11 vector
T1 sequence: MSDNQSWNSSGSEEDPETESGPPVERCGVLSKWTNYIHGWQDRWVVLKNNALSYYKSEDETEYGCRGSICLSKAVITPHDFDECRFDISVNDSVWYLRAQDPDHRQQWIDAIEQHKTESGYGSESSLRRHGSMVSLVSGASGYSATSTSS
Protocol: Isolation and characterization of cDNA clones encoding human GPBP—Several human λ-gt11 cDNA expression libraries (eye, fetal and adult lung, kidney and HeLa S3, from CLONTECH) were probed for cDNAs encoding proteins interacting with GPpep1. Nitrocellulose filters (Millipore) prepared following standard immunoscreening procedures were blocked and incubated with 1-10 nmoles per ml of GPpep1 at 37° C. Specifically bound GPpep1 was detected using M3/1A monoclonal antibodies (7). A single clone was identified in the HeLa-derived library (HeLa1). Specificity of fusion protein binding was confirmed by similar binding to recombinant eukaryotic human GP antigen. The EcoRI cDNA insert of HeLa1 (0.5-kb) was used to further screen the same library and to isolate overlapping cDNAs. The largest cDNA (2.4-kb) containing the entire cDNA of HeLa1 (n4′) was fully sequenced.

[2] = target: T2, rMBP Ser to Ala mutant in position 8, P02686
T2 chain: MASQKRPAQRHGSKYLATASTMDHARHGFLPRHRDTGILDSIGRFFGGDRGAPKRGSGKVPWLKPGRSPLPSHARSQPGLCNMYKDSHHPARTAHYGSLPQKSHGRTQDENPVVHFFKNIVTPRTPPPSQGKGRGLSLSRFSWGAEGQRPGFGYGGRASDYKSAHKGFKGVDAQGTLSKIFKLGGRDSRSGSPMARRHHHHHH

[3] = target: T3, rMBPΔII Ser to Ala mutant in position 8
T3 chain: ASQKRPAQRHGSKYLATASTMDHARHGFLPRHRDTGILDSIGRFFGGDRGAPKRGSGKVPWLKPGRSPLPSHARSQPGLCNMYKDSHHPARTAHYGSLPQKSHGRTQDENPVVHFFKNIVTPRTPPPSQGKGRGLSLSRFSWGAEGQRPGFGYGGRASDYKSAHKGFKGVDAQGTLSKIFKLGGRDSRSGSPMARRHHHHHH

[4] = target: T4, rMBP Ser to Ala mutant in position 57, P02686
T4 chain: T2 chain with A8S, S57A

GPΔIII derived peptide = target: T5, GPΔIII derived peptide
T5 chain: QRAHGQDLDALFVKVLRSP

[5] = target: T6, rMBPΔII Ser to Ala mutant in position 57
T6 chain: T3 chain with A7S, S56A

[6] = target: T7, recombinant 18.5 kDa myelin basic protein lacking exon II (rMBPΔII)
T7 chain: T3 chain with A7S

[7] = target: T8, native human GP antigen (alpha3(IV)NC1 domain), Q01955
T8 chain: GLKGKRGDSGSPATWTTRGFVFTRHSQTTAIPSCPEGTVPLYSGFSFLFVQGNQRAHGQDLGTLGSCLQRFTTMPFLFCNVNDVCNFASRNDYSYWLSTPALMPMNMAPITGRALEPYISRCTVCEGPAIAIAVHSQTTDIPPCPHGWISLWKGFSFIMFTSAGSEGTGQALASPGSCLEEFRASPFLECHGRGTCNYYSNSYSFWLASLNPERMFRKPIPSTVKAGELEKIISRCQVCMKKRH

[8] = target: T9, recombinant 21 kDa myelin basic protein (rMBP), P02686
T9 chain: T2 chain with A8S

GPpep1 = target: T10, GPpep1
T10 chain: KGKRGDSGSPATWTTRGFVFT

GPpep1 Ala9 = target: T11, GPpep1 Ala9
T11 chain: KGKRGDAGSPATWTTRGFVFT

[9] = target: T12, Human recombinant GP antigen (rGP) produced in 293 cells, Q01955
T12 chain: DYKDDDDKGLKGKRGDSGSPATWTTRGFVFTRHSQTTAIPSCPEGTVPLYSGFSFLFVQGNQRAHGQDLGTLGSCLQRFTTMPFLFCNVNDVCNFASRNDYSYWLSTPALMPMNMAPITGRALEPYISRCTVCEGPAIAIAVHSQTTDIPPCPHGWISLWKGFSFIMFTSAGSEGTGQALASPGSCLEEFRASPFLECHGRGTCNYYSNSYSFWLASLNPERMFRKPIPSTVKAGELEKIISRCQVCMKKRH

[10] = target: the molecule itself; assay: gel filtration HPLC and analytical ultracentrifugation (peak II 220±10 kDa, likely trimers)
Protocol: FIG. 11. rGPBP and rGPBPΔ26 form very active high molecular weight aggregates. About 300 μg of rGPBP (A) or rGPBPΔ26 (B) were subjected to gel filtration HPLC as described under Material and Methods. Vertical arrowheads and numbers respectively indicate the elution profile and molecular mass (kDa) of the molecular weight standards used. Larger aggregates eluted in the void volume (I), and the bulk of the material present in the samples eluted in the fractionation range of the column as a second peak between the 669 and 158 kDa markers (II). Fifteen microliters of the indicated minute fractions were subjected to SDS-PAGE and Coomasie blue staining. Five microliters of the same fractions were in vitro phosphorylated as described in Materials and Methods, and the reaction stopped by boiling in SDS sample buffer. […]
Gel-filtration HPLC. […] The material was eluted from the column at 0.5 ml/min, monitored at 220 nm and minute fractions collected.
rGPBP and rGPBP-26 exist as very active high molecular weight aggregates. Gel filtration analysis of affinity-purified rGPBP or rGPBPΔ26 yielded two chromatographic peaks (I and II), both displaying higher MW than expected for the individual molecular species, as determined by SDS-PAGE studies (89 kDa and 84 kDa, respectively ) (FIG. 11). […] ATP, and analyzed by immunoblot and autoradiography.

B1: GPpep1 (peptide)
peptide: KGKRGDSGSPATWTTRGFVFT
notes: also called 21-residue peptide representing residues 3-23 of the human GP antigen
binding result [1]: binds

B2: FLAG-tagged recombinant GPBP (rGPBP) (protein)
chain: DYKDDDDKMSDNQSWNSSGSEEDPETESGPPVERCGVLSKWTNYIHGWQDRWVVLKNNALSYYKSEDETEYGCRGSICLSKAVITPHDFDECRFDISVNDSVWYLRAQDPDHRQQWIDAIEQHKTESGYGSESSLRRHGSMVSLVSGASGYSATSTSSFKKGHSLREKLAEMETFRDILCRQVDTLQKYFDACADAVSKDELQRDKVVEDDEDDFPTTRSDGDFLHSTNGNKEKLFPHVTPKGINGIDFKGEAITFKATTAGILATLSHCIELMVKREDSWQKRLDKETEKKRRTEEAYKNAMTELKKKSHFGGPDYEEGPNSLINEEEFFDAVEAALDRQDKIEEQSQSEKVRLHWPTSLPSGDAFSSVGTHRFVQKPYSRSSSMSSIDLVSASDDVHRFSSQVEEMVQNHMTYSLQDVGGDANWQLVVEEGEMKVYRREVEENGIVLDPLKATHAVKGVTGHEVCNYFWNVDVRNDWETTIENFHVVETLADNAIIIYQTHKRVWPASQRDVLYLSVIRKIPALTENDPETWIVCNFSVDHDSAPLNNRCVRAKINVAMICQTLVSPPEGNQEISRDNILCKITYVANVNPGGWAPASVLRAVAKREYPKFLKRFTSYVQEKTAGKPILF
^32P incorporation, in situ phosphorylation of blotted substrate [2]: recombinant Ser to Ala mutants displayed no significant reduction in ^32P incorporation | ^32P incorporation, in situ phosphorylation of blotted substrate [3]: recombinant Ser to Ala mutants displayed no significant reduction in ^32P incorporation | ^32P incorporation, in situ phosphorylation of blotted substrate [4]: recombinant Ser to Ala mutants displayed no significant reduction in ^32P incorporation | ^32P incorporation, in vitro phosphorylation (native bovine GP antigen): no appreciable ^32P-incorporation was observed in the bovine-derived substrate | GPBP autophosphorylation, 5 nmol peptide, Boc chemistry (GPΔIII derived peptide): Boc-based synthetic peptides positively influenced GPBP autophosphorylation | GPBP autophosphorylation, 5 nmol peptide, Fmoc chemistry (GPΔIII derived peptide): Fmoc-based inhibited GPBP autophosphorylation | ^32P incorporation, in situ phosphorylation of blotted substrate [5]: recombinant Ser to Ala mutants displayed no significant reduction in ^32P incorporation | ^32P incorporation, in situ phosphorylation of blotted substrate [6]: little phosphorylation of MBPΔII was observed | ^32P incorporation, in vitro phosphorylation [7]: Affinity-purified rGPBP phosphorylates all human-derived material to a different extent | ^32P incorporation, in situ phosphorylation of blotted substrate [8]: GPBP preferentially phosphorylated MBP | ^32P incorporation, in vitro phosphorylation (GPpep1): Affinity-purified rGPBP phosphorylates all human-derived material to a different extent | ^32P incorporation, in vitro phosphorylation (GPpep1 Ala9): The lower ^32P incorporation displayed by GPpep1 Ala^9 when compared with GPpep1 | ^32P incorporation, in vitro phosphorylation [9]: Affinity-purified rGPBP phosphorylates all human-derived material to a different extent

B3: FLAG-tagged recombinant GPBP (rGPBP) (enzyme)
chain: B2 chain
modifications: contains phosphoserine, phosphothreonine and phosphotyrosine; positions not given
notes: Expressed in Pichia pastoris (pHIL-FLAG-n4') or in 293 cells (pc-FLAG-n4'); ON-GPBP-54m also encodes an initiation Met and a few residues before the FLAG; also called yeast rGPBP; FLAG-n4'
binding result [10]: binds
